B1: RORg: RAR-related Orphan Receptor γ (NR1F3), cDNA driver (protein, UniProt P51449 1-518, looked up)
Nuclear receptor ROR-gamma: MDRAPQRQHRASRELLAAKKTHTSQIEVIPCKICGDKSSGIHYGVITCEGCKGFFRRSQRCNAAYSCTRQQNCPIDRTSRNRCQHCRLQKCLALGMSRDAVKFGRMSKKQRDSLHAEVQKQLQQRQQQQQEPVVKTPPAGAQGADTLTYTLGLPDGQLPLGSSPDLPEASACPPGLLKASGSGPSYSNNLAKAGLNGASCHLEYSPERGKAEGRESFYSTGSQLTPDRCGLRFEEHRHPGLGELGQGPDSYGSPSFRSTPEAPYASLTEIEHLVQSVCKSYRETCQLRLEDLLRQRSNIFSREEVTGYQRKSMWEMWERCAHHLTEAIQYVVEFAKRLSGFMELCQNDQIVLLKAGAMEVVLVRMCRAYNADNRTVFFEGKYGGMELFRALGCSELISSIFDFSHSLSALHFSEDEIALYTALVLINAHRPGLQEKRKVEQLQYNLELAFHHHLCKTHRQSILAKLPPKGKLRSLCSQHVERLQIFQHLHPIVVQAAFPPLYKELFSTETESPVGLSK
B2: RORa: RAR-related Orphan Receptor α (NR1F1), cDNA driver (protein, UniProt P35398 1-523, looked up)
Nuclear receptor ROR-alpha: MESAPAAPDPAASEPGSSGADAAAGSRETPLNQESARKSEPPAPVRRQSYSSTSRGISVTKKTHTSQIEIIPCKICGDKSSGIHYGVITCEGCKGFFRRSQQSNATYSCPRQKNCLIDRTSRNRCQHCRLQKCLAVGMSRDAVKFGRMSKKQRDSLYAEVQKHRMQQQQRDHQQQPGEAEPLTPTYNISANGLTELHDDLSNYIDGHTPEGSKADSAVSSFYLDIQPSPDQSGLDINGIKPEPICDYTPASGFFPYCSFTNGETSPTVSMAELEHLAQNISKSHLETCQYLREELQQITWQTFLQEEIENYQNKQREVMWQLCAIKITEAIQYVVEFAKRIDGFMELCQNDQIVLLKAGSLEVVFIRMCRAFDSQNNTVYFDGKYASPDVFKSLGCEDFISFVFEFGKSLCSMHLTEDEIALFSAFVLMSADRSWLQEKVKIEKLQQKIQLALQHVLQKNHREDGILTKLICKVSTLRALCGRHTEKLMAFKAIYPDIVRLHFPPLYKELFTSEFEPAMQIDG
B3: HNF4a: Hepatocyte Nuclear Factor α (NR2A1), cDNA driver (protein, UniProt P41235 1-474, looked up)
Hepatocyte nuclear factor …: MRLSKTLVDMDMADYSAALDPAYTTLEFENVQVLTMGNDTSPSEGTNLNAPNSLGVSALCAICGDRATGKHYGASSCDGCKGFFRRSVRKNHMYSCRFSRQCVVDKDKRNQCRYCRLKKCFRAGMKKEAVQNERDRISTRRSSYEDSSLPSINALLQAEVLSRQITSPVSGINGDIRAKKIASIADVCESMKEQLLVLVEWAKYIPAFCELPLDDQVALLRAHAGEHLLLGATKRSMVFKDVLLLGNDYIVPRHCPELAEMSRVSIRILDELVLPFQELQIDDNEYAYLKAIIFFDPDAKGLSDPGKIKRLRSQVQVSLEDYINDRQYDSRGRFGELLLLLPTLQSITWQMIEQIQFIKLFGMAKIDNLLQEMLLGGSPSDAPHAHHPLHPHLMQEHMGTNVIVANTMPTHLSNGQMCEWPRPRGQAATPETPQPSPPGGSGSEPYKLLPGAVATIVKPLSAIPQPTITKQEVI
B4: LXRb: Liver X Receptor β (NR1H2), cDNA driver (protein, UniProt P55055 1-460, looked up)
Oxysterols receptor LXR-beta: MSSPTTSSLDTPLPGNGPPQPGAPSSSPTVKEEGPEPWPGGPDPDVPGTDEASSACSTDWVIPDPEEEPERKRKKGPAPKMLGHELCRVCGDKASGFHYNVLSCEGCKGFFRRSVVRGGARRYACRGGGTCQMDAFMRRKCQQCRLRKCKEAGMREQCVLSEEQIRKKKIRKQQQESQSQSQSPVGPQGSSSSASGPGASPGGSEAGSQGSGEGEGVQLTAAQELMIQQLVAAQLQCNKRSFSDQPKVTPWPLGADPQSRDARQQRFAHFTELAIISVQEIVDFAKQVPGFLQLGREDQIALLKASTIEIMLLETARRYNHETECITFLKDFTYSKDDFHRAGLQVEFINPIFEFSRAMRRLGLDDAEYALLIAINIFSADRPNVQEPGRVEALQQPYVEALLSYTRIKRPQDQLRFPRMLMKLVSLRTLSSVHSEQVFALRLQDKKLPPLLSEIWDVHE

Key:
RevErba promoter = test: NHR-promoter luciferase screen, RevErba (RVRa) promoter; assay type: cell-based; set-up: key to mRevErba promoter reporter activity / Normalized Luc. act., normalized to control: luciferase activity normalized to lacZ and to control (no NHR/ligand); details: for Luc. act., normalized to lacZ / Normalized Luc. act., normalized to control: HR component without or with ligand; for normalized Luc. act. on a logarithmic scale (column without head, Table 33): log10 of activity normalized to control; for mRevErba promoter reporter activity: transcription factor +/- ligand, control = 1.00
Method: Briefly, there were co-expressed 50 ng of each NHR/NHR homodimer or NHR/RXR heterodimer with 100 ng promoter/luciferase construct and 50 ng of LacZ (as a control for transfection efficiency) in CV-1 cells using Fugene HD (Roche) as a transfection reagent (alternatively or additionally, a CMV-YFP construct can be used as a transfection control). Each of the nuclear hormone receptors that were used in these experiments was cloned into a pcDNA3.1 vector and comprised a C-terminally linked V5H6 tag.
(§1) The promoters that facilitate transcription of the indicated gene products that were tested using the protocols described herein are listed in the first row of the table. The nuclear hormone receptors and, where applicable, ligands that were assayed for their transcriptional effects on the promoters are listed in the first column of the table. The data represent the luciferase activity of each sample normalized to both the lacZ activity of that sample and to a control, e.g., no NHR or ligand, as customary in the art. As described previously, these normalizations allow the transcriptional activity of each reporter cell to be compared to other samples.
The control data of each table are shown in their last rows.

mPer1 promoter = test: NHR-promoter luciferase screen, mPer1 promoter; assay type: cell-based, mouse; details: for Luc. act., normalized to lacZ / Normalized Luc. act., normalized to control: Per1 promoter reporter, co-transfected HR, with or without its ligand; for Normalized Luc. act., normalized to control: relative to control; for luciferase activity normalized to lacZ activity and to a control, mPer1: mPer1 promoter-luciferase, CV-1 cells, NHR +/- ligand, control = 1.00
Method: (§2) The use, feasibility, and reproducibility of the functional NHR-promoter screen in a 48-well format have been tested validated. Briefly, there were co-expressed 50 ng of each NHR/NHR homodimer or NHR/RXR heterodimer with 100 ng promoter/luciferase construct and 50 ng of LacZ (as a control for transfection efficiency) in CV-1 cells using Fugene HD (Roche) as a transfection reagent (alternatively or additionally, a CMV-YFP construct can be used as a transfection control). Each of the nuclear hormone receptors that were used in these experiments was cloned into a pcDNA3.1 vector and comprised a C-terminally linked V5H6 tag. Twenty-four hours after transfection, appropriate ligands were added, where applicable, (see Table 5 for various ligands and concentrations and after 48 hrs, samples were assayed for luciferase and LacZ activity. To measure for luciferase activity 15 ul of sample was added to 30 ul of luciferase buffer (20 mM tricine, 1.07 mM MgCarbonate, 2.67 mM MgSulfate, 0.1 mM Naz-EDTA, 5 mM DTT, 5 mM ATP, 0.15 mg/ml CoA, 0.5 mM Luciferin), mixed briefly, and run in a Perkin Elmer Victor 5 luminometer. Thus, the functional NHR-promoter screen was used to observe the transcriptional activity of 29 promoters from various physiological pathways including inflammation, lipid and sugar metabolism, cholesterol transport, xenobiotic metabolism, and circadian rhythm.
as §1
(§3) Tables 7-40 show the transcriptional effects of the hormone receptors, and, where applicable, ligands (orphan receptors are screened without ligand), on each individual promoter. […] The control data of each table are shown in their last rows.

mADRP promoter = test: NHR-promoter luciferase screen, mADRP promoter; assay type: cell-based, mouse; details: for Luc. act., normalized to lacZ / Normalized Luc. act., normalized to control: ADRP promoter, HR/ligand component; for mADRP promoter reporter activity: transcription factor +/- ligand, control = 1.00
Method: as §2, §1, §3

mDio2 promoter = test: NHR-promoter luciferase screen, mDio2 promoter; assay type: cell-based, mouse; details: for Luc. act., normalized to lacZ / Normalized Luc. act., normalized to control: Dio2, HR component without or with its ligand; for mDio2 promoter reporter activity: transcription factor +/- ligand, control = 1.00
Method: as §2, §1, §3

hMDR1 promoter = test: NHR-promoter luciferase screen, hMDR1 promoter; assay type: cell-based, human; details: for Luc. act., normalized to lacZ / Normalized Luc. act., normalized to control: MDR1 promoter, HR/ligand component; for hMDR1 promoter reporter activity: transcription factor +/- ligand, control = 1.00
Method: as §2, §1, §3

Row | Molecule | Luc. act., normalized to lacZ (RevErba promoter; RVRa promoter) | Normalized Luc. act., normalized to control (RevErba promoter; RVRa promoter) | negative reciprocal of normalized Luc. act. (fold repression; Table 33) (RevErba promoter; RVRa promoter, given only where activity is below control) | normalized Luc. act. on a logarithmic scale (column without head, Table 33) (RevErba promoter; RVRa promoter) | mRevErba promoter reporter activity (RevErba promoter) | Luc. act., normalized to lacZ (mPer1 promoter) | Normalized Luc. act., normalized to control (mPer1 promoter) | luciferase activity normalized to lacZ activity and to a control, mPer1 (mPer1 promoter) | Luc. act., normalized to lacZ (mADRP promoter) | Normalized Luc. act., normalized to control (mADRP promoter) | mADRP promoter reporter activity (mADRP promoter) | Luc. act., normalized to lacZ (mDio2 promoter) | Normalized Luc. act., normalized to control (mDio2 promoter) | mDio2 promoter reporter activity (mDio2 promoter) | Luc. act., normalized to lacZ (hMDR1 promoter) | Normalized Luc. act., normalized to control (hMDR1 promoter) | hMDR1 promoter reporter activity (hMDR1 promoter)
1 | RXRa: Retinoic X Receptor α (NR2B1), cDNA driver | 26.26 | 0.9 | −1.065 | −0.03 | 0.94 | 75.8 | 0.5 | 0.53 | 783.2 | 1.6 | 1.57 | 18.6 | 1.2 | 1.18 | 0.2 | 0.5 | 0.51
2 | B1 | 67.79 | 2.4 | – | 0.38 | 2.42 | 176.3 | 1.2 | 1.22 | 929.8 | 1.9 | 1.87 | 58.7 | 3.7 | 3.74 | 0.2 | 0.5 | 0.54
3 | B2 | 86.91 | 3.1 | – | 0.49 | 3.11 | 107.9 | 0.7 | 0.75 | 976.2 | 2.0 | 1.96 | 47.2 | 3.0 | 3.01 | 0.1 | 0.3 | 0.32
4 | B3 | 30.15 | 1.1 | – | 0.03 | 1.08 | 93.1 | 0.6 | 0.65 | 729.1 | 1.5 | 1.47 | 33.6 | 2.1 | 2.14 | 0.2 | 0.8 | 0.77
5 | B4 | 30.9 | 1.1 | – | 0.04 | 1.10 | 117.6 | 0.8 | 0.82 | 1191.8 | 2.4 | 2.40 | 18.1 | 1.2 | 1.15 | 0.2 | 0.8 | 0.78
